Laboratory results taken from patent US20250134019A1, “TRIKETONE DIOXYGENASE VARIANTS FOR HERBICIDE TOLERANCE” (Monsanto Technology LLC, priority 2022, published 2025).
Positions count from the first letter of the chain named. Names may count otherwise.

B1: ANDge.TDO: TDO homolog from Andropogon gerardii, SEQ ID NO:12 (protein, listed as Andropogon gerardii)
chain: MASSSWRVPTPVQELAAGVVEPPSQFVLQEQDRPESLLLAADMPEPIPVIDLSRLSAADEASKLQSALQTWGLFLVTNHGIEASLMDEVMAASRDFFHQPLQEKQKYSNLIGGKRFQMEGYGNDMVTSQDQILDWQDRLQLRVEPEDERNLAYWPKHPDSFRDLLHEYASKTKKVRDNLLRAMGKILELGDDYFISQIGEKASAVARFNYYPPCPRPELVFGIKPHSDGGAVTILLVDNDVGGLQVQKDGIWYTVPSKPHTLVVNLADSMEIMNNGIFKSPVHRVVTNAEKERLSLAMFYGVEGQKMLEPAAGLLGEDRPARYRKIKAADYIVGLRQGIAKGQRFIETLKI
B2: Cl.Col.TDO1: TDO homolog from Coix lacryma-jobi, SEQ ID NO:14 (protein)
chain: MASSSWKVPTPVQELAATLEEPPSRYVLREKDRPSSPLVADDMPEPLPVINLSRLSEDAAEAAKLEAALQSWGLVLVTNHGIETSLMDDVMDTSREFFNQTLEEKQKYSNLIEGKRFQMEGYGNDRVSTEHQILNWNDRLHLKVAPDDERNYTHWPKHPESFRDVLHEYTLKTKKIRDNICSNGQDIGARFNYYPPCPRPDLVNGVQPHSDAGVLTILLVDKEIRGLQVQRDGIWYNVPRKPYTLLINLGDVMEIMSNGIFKSPVHRVVTNTEKERISLAMFYGVDAENVLEPAAGLLDEKRPARYRKVEITDFVAGVHEHFSRGTRFIESLKI
modifications: Coix lacryma-jobi
B3: TDO_6: Os.TDO variant, SEQ ID NO:38, G242S-P256E relative to D08 (protein)
chain: MADESWRAPALVQELAAKGVEEPPSRYLLREQDRPDVKLVAAELPEPIPVVDLGRLDGAEEATKLRVALQNWGFFLLTNHGIEASLMDDVMNLSREFFNQPIERKQKFSNLIDGKHFQIEGYGTDRVVTQDQVLDWSDRLHLRVEPKEEQDLAFWPDHPESFRDVLHKYASGCKRIRDDIIQAMAKLLELDEDYFLDRFNEAPTFARFNYYPPCPRPDLVFGIRPHSDGGLLTILLVDKDVSGLQVQRDGKWSNVEATPHTLLINLGDTMEVMSNGIFKSPVHRVVTNAEKERISLAMLYSVNDEKDIEPAAGLLDENRPARYRKVSVEEFRAGIFGKFSRGERYIDSLRI
modifications: TDO variant sequence
B4: TDO_8: Os.TDO variant, SEQ ID NO:42, Q32K-I48L-V133I-G242S-P256E relative to D08 (protein)
chain: B3 chain with Q32K, I48L, V133I
modifications: TDO variant sequence
B5: TDO_3: Os.TDO variant, SEQ ID NO:32, P35S-G242S relative to D08 (protein)
chain: B3 chain with P35S, E256P
modifications: TDO variant sequence
B6: TDO_4: Os.TDO variant, SEQ ID NO:34, H116N-G242S relative to D08 (protein)
chain: B3 chain with H116N, E256P
modifications: TDO variant sequence
B7: TDO_5: Os.TDO variant, SEQ ID NO:36, E120Q-G242S relative to D08 (protein)
chain: B3 chain with E120Q, E256P
modifications: TDO variant sequence
B8: TDO_1: Os.TDO variant, SEQ ID NO:28, P35S-H116N relative to D08 (protein)
chain: B3 chain with P35S, H116N, S242G, E256P
modifications: TDO variant sequence
B9: TDO_7: Os.TDO variant, SEQ ID NO:40, G242S-S274C relative to D08 (protein)
chain: B3 chain with E256P, S274C
modifications: TDO variant sequence
B10: Cl.Col.TDO2: TDO homolog from Coix lacryma-jobi, SEQ ID NO:16 (protein)
chain: MASSSWRVPTPVQELAAGVVEPPSQFVLQEQDRPESLLLATDMPEPIPVIDLSRLAAADEASKLRSALQTWGLFLVTNHGIEASLMDDVMAASRDFFYQPLEEKQKYSNLVGGKRFQMEGYGNDMVASQDQVLDWQDRLQLRVEPEDERNLAYWPKHPDSFRDLLHEYASKTKKVRDNVLQAMGKLLELGEDYFISQIGGKASAIARFNYYPPCPRPELVFGIKPHSDGGAVTILLVDNDVGGLQVQKDGIWYTVPSKPHTLVVNLGDSMEILNNGIFKSPVHRVVTNAEKERLSLAMFYGVEGQKVLEPAAALLGEERPARYRKIKAADYIVGLRQGIARGNRFIETLKI
modifications: Coix lacryma-jobi
B11: Si.TDO: TDO homolog from Setaria italica, SEQ ID NO:8 (protein, listed as Setaria italica)
chain: MANESWKIPMLVQELAAKVQEPPSRYVQPEQQHPVSLVVGAEKPEAIPVIDLSRLLAADGADEEGSKLRLALQSWGLFLIDNHGIETSLMDDLINASREFFHLPLEEKQKCSNLIDGKHYQVEGYGNDPVASKDQILDWLDRLHLRVEPEDERNLVHWPEHPNSFRALLHKYTLNCKRIKDRILWAMAKSLGLDEDYIVAQFSGKAPSFARFNYYPPCPRPDIVFGAKPHSDGGVLTILLMDKDVGGLQVLRDGVWHNVPTSPHRLLVNIGDFSEIMSNGIFKSPVHRVVTNMGKERISLAMFHGLDPEKEIEPATALLHEKQLARYRKIKAKVYLAGFYEHFCRGTRFIDSEDLREVA
B12: Ta.TDO: TDO homolog from Triticum aestivum, SEQ ID NO:10 (A4S from codon optimization) (protein, listed as Triticum aestivum)
chain: MASSDESPMVRPTVQELASAGVEEPPRQYVLPEQDRHGDLLAADEFPEPIPLIDLSRLTDADEAERLRAALQTWGFFLATNHGIEGSLMDAMMSVSREFFRQPAEEKQKCSNLVDGNGKDYQVEGYGSDKVVSEDQVLNWSDRLHLRVEPEDERNFAKWPSHPESFRDVLKEYASRTKEIRDLVLRSIAKLLEIDEDYFVNQISNKASGFARFNYYPPCPRPDLVLGLRAHSDGGLLTILFNDDTVGGLQVQRDGRWYNVSAKPHTLLINLADCLEIMNNGIFTSPIHRVVTNIKKDRLSLAVFYAVDAETMLEPAPGLLDDKRPPRYRKMLAKDFVAGLFEHFRQGKRFINTLKI

Assays:
Assay type in all cases: in vivo
[1] = test system: transgenic soybean plants; experiment: Mesotrione injury of R0 transgenic soybean plants expressing TDO homologs; settings: 210 g a.i./ha mesotrione at V3-V4, rated 7-14 days after treatment, mean of all tested events
Method: Plant expression vectors comprising the selected TDO homologs under the control of one of two constitutive promoters were transformed into soybean via an Agrobacterium tumefaciens-mediated method. Following Agrobacterium transformation, R0 transgenic soybean plants containing a single copy of the transgene were identified through molecular characterization and segregation analysis. Transgenic and wild-type (control) plants were grown in 6-inch pots filled with BM7 soilless mix in a growth chamber under the conditions of 28° C./23° C. (light/dark) and a 16 hr light/8 hr dark photoperiod. Plants were fertilized with 15-5-15 liquid fertilizer at the V3-V4 growth stage and treated with 210 g a.i./ha mesotrione (1X=105 g a.i./ha; Callisto®, Syngenta in 1% crop oil). Plants were visually rated 7-14 days after treatment on a scale of 0% to 100%, with 0%=no injury and 100%=plant death, relative to the wild-type controls. The results summarized in Table 2 represent the mean of all tested events (10-15) for each construct.

[2] = test system: transgenic soybean plants; experiment: Response of R0 soybean plants transformed with Round 2 TDO variants to mesotrione; settings: R0 transgenic soybean sprayed with mesotrione
Excerpt: The next set of experiments was focused on determining if the balance between improved enzyme stability could outweigh a reduction in activity observed at optimal temperatures in soybean plants. […] To test this hypothesis, the eight variants from Round 2 biochemical analysis described in the preceding paragraph were transformed into soybean through Agrobacterium-mediated transformation, along with three controls. One of the controls (TDO_9) was a variant from the high-throughput screens that had poor activity. Two other controls were the D08 variant and the Os.TDO. R0 transgenic soybean plants were sprayed with the mesotrione herbicide to screen for herbicide tolerance. […] These included the Os.TDO control, the D08 variant and one Round 2 variant. The plants were scored for percent injury as described in the previous examples.

[3] = test system: transgenic cotton plants; experiment: Mesotrione treatment of cotton plants expressing TDO variants, crop injury; settings: for Crop Injury (%), 210 g/ha (2X) Mesotrione / Crop Injury (%), 840 g/ha (8X) Mesotrione: R2 cotton sprayed at V3
Method: Cotton is a crop of interest that is often exposed to high temperature growing conditions and thus, selected TDO variants were tested in cotton. Three TDO variants, D08, TDO_6, and TDO_8 were transformed into cotton (along with the Os.TDO control) using similar expression elements in single-cassette vectors or as part of multi-cassette vectors. R2 transgenic cotton plants were then screened for tolerance to mesotrione. Sixteen plants from two events each per construct were sprayed with two rates (2X and 8X) of mesotrione at V3 stage under normal (80° F.) and hot (100° F.) growing conditions. In addition, the effect of heat treatment on TDO accumulation in cotton plants were measured by ELISA. Cotton plants were planted and grown under normal greenhouse conditions (80° F. day/70° F. night) until V3 growth stage. Half of the plants were then moved to a higher temperature growth chamber (100° F. day/82° F. night) for the heat treatment, whereas the remaining half of the plants stayed in the same greenhouse (80° F. day/70° F. night). At day 3 after the plants were placed under different temperature conditions, leaf samples were collected for TDO protein measurement. The plants in 100° F. growth chamber and in 80° F. greenhouse were both sprayed with 2X mesotrione (210 g a.i./ha). Leaf samples were collected again 7 days after mesotrione treatment (DAT: Days After Treatment) for protein assay. Table 5 compares protein levels of the TDO variants in transgenic cotton plants grown under the two tested conditions. The protein levels for the TDO variants were measured at three time points for plants: 1) just before entering the high temperature treatment, 2) three days following placement into control (normal growth temperature) or high temperature (100° F.), and 3) 7 days after a 2X mesotrione spray.

[4] = promoter Constitutive 2, 3' UTR B

| Molecule | % Injury [1, 4] | R0 % Injury [2] | further results |
| --- | --- | --- | --- |
| B1 | 55% |  |  |
| B2 | 61% |  |  |
| B3 |  | 31% | Crop Injury (%), 210 g/ha (2X) Mesotrione ([3]; Under 80° F.): 0%; Crop Injury (%), 840 g/ha (8X) Mesotrione ([3]; Under 80° F.): 0%; Crop Injury (%), 210 g/ha (2X) Mesotrione ([3]; Under 100° F.): 0%; Crop Injury (%), 840 g/ha (8X) Mesotrione ([3]; Under 100° F.): 0%; injury rates relative to Os.TDO controls ([3]; cotton at the higher temperature): trending even lower than the Os.TDO controls |
| B4 |  | 31% | Crop Injury (%), 210 g/ha (2X) Mesotrione ([3]; Under 80° F.): 0.25%; Crop Injury (%), 840 g/ha (8X) Mesotrione ([3]; Under 80° F.): 0%; Crop Injury (%), 210 g/ha (2X) Mesotrione ([3]; Under 100° F.): 0.27%; Crop Injury (%), 840 g/ha (8X) Mesotrione ([3]; Under 100° F.): 0% |
| B5 |  | 35% |  |
| B6 |  | 32% |  |
| B7 |  | 30% |  |
| B8 |  | 30% |  |
| B9 |  | 32% |  |
| B10 | 53% |  |  |
| B11 |  |  | % Injury ([1]; promoter Constitutive 1, 3' UTR A): 35% |
| B12 | 50% |  |  |
